Results on 4 molecules are retold here after patent publication US20190284275A1.

One may read the Kd as the constant that tells how readily two partners part at equilibrium. A lower Kd goes with tighter binding. What is called koff is a measure of how fast the partners let go of each other. High values mean fast dissociation, low ones slow dissociation. The kon is a measure of how fast the partners come together.

The target of the test is human KRAS (antigen of the affinity data in Table 1; variant not stated) (human) (UniProt P01116). The test is described as follows: kinetic affinity measurement (Rmax in RU; method and format not named).

B1: 1F4_5C5 (antibody, V domains shown)
VH: EVQLVQSGGGVVQPGRSLRLSCAASGFTSKKYGMHWVRQAPGKGLEWVAVISHDGSKKYYADSVKGRFTISRDNSKNTLFVQLSSLRPEDTAVYYCATSLYSSMDLWGQGTTVTVSS
VL: QSVVTQPPSVSAAPGQKVTISCSGSNSNIGKNYVSWFQQVPGTAPKLLIFEDNQRPSGIPDRFSASKSGTSASLAISGLQSEDEADYYCAAWDDLGGDHWVFGGGTKLTVL
B1 displayed a Kd of 6.63 nM, a koff of 0.0011 s⁻¹ and a kon of 166000 M⁻¹ s⁻¹.

B2: 1F4_5F8 (antibody, V domains shown)
VH: EVQLVQSGGGVVQPGRSLRLSCAASGFTSRNPGMHWVRQAPGKGLEWVAVISHDGSKKYYADSVKGRFTISRDNSKNTLFVQLSSLRPEDTAVYYCATSLYSSMDLWGQGTTVTVSS
VL: QSVVTQPPSVSAAPGQKVTISCSGSNSNIGKNYVSWFQQVPGTAPKLLIFEDNQRPSGIPDRFSASKSGTSASLAISGLQSEDEADYYCAAWDDSTGVHWVFGGGTKLTVL
In the case of B2, the Kd is 12.6 nM, the koff turned out to be 0.00229 s⁻¹ and the kon was 182000 M⁻¹ s⁻¹.

B3: 1F4_4E10 (antibody, V domains shown)
VH: EVQLVQSGGGVVQPGRSLRLSCAASGFTSRAPGMHWVRQAPGKGLEWVAVISHDGSKKYYADSVKGRFTISRDNSKNTLFVQLSSLRPEDTAVYYCATSLYSSMDLWGQGTTVTVSS
VL: QSVVTQPPSVSAAPGQKVTISCSGSNSNIGKNYVSWFQQVPGTAPKLLIFEDNQRPSGIPDRFSASKSGTSASLAISGLQSEDEADYYCAAWDDHNGEHWVFGGGTKLTVL
Turning to B3, the dissociation constant (Kd) amounted to 9.6 nM, the koff worked out at 0.0013 s⁻¹ and the kon was found to be 135000 M⁻¹ s⁻¹.

B4: 1F4_1E3 (antibody, V domains shown)
VH: EVQLVQSGGGVVQPGRSLRLSCAASGFTSRHPGMHWVRQAPGKGLEWVAVISHDGSKKYYADSVKGRFTISRDNSKNTLFVQLSSLRPEDTAVYYCATSLYSSMDLWGQGTTVTVSS
VL: QSVVTQPPSVSAAPGQKVTISCSGSNSNIGKNYVSWFQQVPGTAPKLLIFEDNQRPSGIPDRFSASKSGTSASLAISGLQSEDEADYYCAAWDDYRGPHWVFGGGTKLTVL
Molecule B4 displayed a Kd of 4.2 nM.
